Assays:
HT29 colon cancer cells = test: HT29 floater assay (negative selection); type: cell-based; conditions: individual clone reintroduced into HT29 cells
Experimental: HT29 cells were tested for feasibility in the floater cell assay as follows. Briefly, six flasks were inoculated with 6.25×10^5 HT29 cells/flask on Day 0. On Day 1, after the cells had been allowed to adhere to the solid support, two of these flasks were infected with retroviral supernatant containing the retroviral vector pVT324, which includes a selectable drug resistant marker (e.g. neomycin), and which constitutively expresses a green fluorescent protein. Of the remaining four flasks, two were mock infected (i.e. exposed to all of the same reagents/conditions as flasks 1 and 2, minus the retrovirus, see “Example 3C”) and two were left undisturbed. On Day 2, this procedure was repeated (i.e. a double infection). On Day 3 (and subsequently on Day 5) one flask was selected from each of the three groups and processed by separating and counting the floater and adherent cell populations. In the case of the floater cell population, the media was collected, centrifuged at 200×g for 10 minutes, and resuspended in PBS prior to removing a sample for counting on a hemocytometer. For the adherent cell population, cells were first removed from the flask by trypsinization, centrifuged, and then processed for analysis in a fashion analogous to the floater cells. To determine the inherent background level of floater cells present in the population, the ratio of the number of floater cells to the total number of cells (adherent cells+floater cells) was analyzed on both the Day 3 and Day 5 flasks that had not been manipulated. These numbers were compared with the analogous numbers taken from infected and mock-infected flasks to determine whether the retrovirus or transfection procedures altered background floater rates. To determine the susceptibility of HT29 cells to retroviral infection, the fraction of cells that expressed GFP in pVT324 infected flasks was calculated using flow cytometry.
Twenty T175 flasks were seeded with 2.2×10^6 HT29 cells/flask in McCoy's 5A media (Gibco BRL) modified with 10% FBS. On Day 1, each flask was infected (4 μg/ml polybrene, 50% volume) with a retroviral supernatant containing a commercially obtained brain cDNA library (“Example Three” above). On Day 2 the media was changed. On Day 3 both the floater and adherent cell populations were collected (separately) from the twenty flasks. Approximately 652,500 floaters were isolated from a theoretical background of 4.2×10^7 adherents (1.5% floaters) and frozen down for future studies. […] Additional floater cells were then collected Day 5, where the collection and counting procedures were repeated and some 7.8×10^6 floaters and 7.6×10^8 adherents were counted (1.03% floaters). […] The floater populations of Days 3 and 5 were then combined and readied for a genomic DNA prep using a QIAamp kit (Qiagen) following standard procedures. Briefly, some 9×10^6 floater cells in PBS were lysed to release gDNA. This material was passed over a QIAamp column that was then washed several times to remove protein and RNA contaminants. Twenty-seven micrograms of genomic DNA were then eluted from the columns with dH2O and treated with RNAse A to eliminate any RNA contamination. This gDNA was then subjected to PCR procedures to amplify the library sequences encoded therein. […]

[1] = tested on: HuVECs (Human Umbilical Vein Endothelial Cells); test: Cell viability of HuVECs after introduction of clone; type: cell-based; conditions: 16 hour time point
Text: In addition to cycling these library sequences (obtained as described above) through an additional round of negative selections, 50 clones were taken from each of the Cycle 5, day five pools for sequence analysis. […] Both of the BID clones obtained from these negative selections encode N-terminal truncations of the native protein (BID Clone #1 encodes amino acids 33-195, BID Clone #2 encodes amino acids 76-195, See FIG. 9). BID clone #1 was reintroduced into fresh, naive HT29 cells and floater rates were compared with cells that had been mock infected or infected with the control vector, pVT324. […] In a similar experiment, BID clone #1 was introduced into HuVECs (Human Umbilical Vein Endothelial Cells, Clonetics/Biowhittaker) and cell viability was followed over the course of 16 hours. While control cells gave a background of 1% cell death at the 16 hour time point, 80% of the cells in the BID clone #1-infected culture died during the same period of time.

B1: BID clone #1: N-terminal truncation of BID (BH3 Interacting Domain Death Agonist), encodes amino acids 33-195 (protein, UniProt P55957 33-195, looked up, fragment)
chain: FRRELDALGHELPVLAPQWEGYDELQTDGNRSSHSRLGRIEADSESQEDIIRNIARHLAQVGDSMDRSIPPGLVNGLALQLRNTSRSEEDRNRDLATALEQLLQAYPRDMEKEKTMLVLALLLAKKVASHTPSLLRDVFHTTVNFINQNLRTYVRSLARNGMD
For B1, the floater rate (HT29 colon cancer cells) was “roughly 18%” and the cells that died [1] was 80%.

Reference: patent publication US6582899B1, “Methods for identifying agents that cause a lethal phenotype, and agents thereof” (Deltagen Proteomics, Inc., priority 2000, dated 2003)
